In article PMC10160029, “Engineered repeat proteins as scaffolds to assemble multi-enzyme systems for efficient cell-free biosynthesis” (Nature Communications, 2023):

What was measured:
[1] = molecular target: FDH1: formate dehydrogenase from Candida boidinii with peptide-1 (MEEVV) fused to its C-terminus (Candida boidinii); test: SEC; each tagged enzyme alone; molecular weight estimated from the elution
TRAP1-3 = molecular target: T1, TRAP1-3; test: fluorescence anisotropy of NADH; assay type: binding; settings: PBS (150 mM NaCl, 50 mM phosphate) pH 7.4, 25 °C, 1 µM NADH titrated with 0-100 µM TRAP1-3; one-site fit
T1 construct: designed fusion of TRAP1 and TRAP3 TPR modules, synthetic gene in pET-28b(+), E. coli C41, Ni-NTA; His-tag kept in assembly; mass 32,621 (kDa [sic])

purified protein [2] = substrate: O=CO; test: purified protein; assay type: biochemical, [Candida] boidinii; settings: saturating NAD+, 25 mM sodium phosphate pH 7.0, 30 °C, FDH1 bound alone to TRAP1-3, apparent
purified protein [3] = substrate: NC(=O)c1ccc[n+]([C@@H]2O[C@H](COP(=O)(O)OP(=O)(O)OC[C@H]3O[C@@H](n4cnc5c(N)ncnc54)[C@H](O)[C@@H]3O)[C@@H](O)[C@H]2O)c1; test: purified protein; assay type: biochemical, [Candida] boidinii; settings: saturating formate, 25 mM sodium phosphate pH 7.0, 30 °C, FDH1 bound alone to TRAP1-3, apparent
[4] = molecular target: the molecule itself; test: SEC; each tagged enzyme alone; molecular weight estimated from the elution
purified protein [5] = substrate: NC(=O)C1=CN([C@@H]2O[C@H](COP(=O)(O)OP(=O)(O)OC[C@H]3O[C@@H](n4cnc5c(N)ncnc54)[C@H](O)[C@@H]3O)[C@@H](O)[C@H]2O)C=CC1; test: purified protein; assay type: biochemical, Geobacillus stearothermophilus; settings: saturating pyruvate, 500 mM ammonium chloride, 25 mM potassium phosphate pH 8.0, 30 °C, AlaDH3 bound alone to TRAP1-3, apparent
purified protein [6] = substrate: CC(=O)C(=O)O; test: purified protein; assay type: biochemical, Geobacillus stearothermophilus; settings: saturating NADH, 500 mM ammonium chloride, 25 mM potassium phosphate pH 8.0, 30 °C, AlaDH3 bound alone to TRAP1-3, apparent, substrate inhibition fit

**Q.** With “FDH1: formate dehydrogenase from Candida boidinii with peptide-1 (MEEVV) fused to its C-terminus (enzyme)” as the molecule, how does the stoichiometry N [1] read?
**A.** The stoichiometry N was 2.

**Q.** How did the Kd (TRAP1-3) turn out when NC(=O)C1=CN([C@@H]2O[C@H](COP(=O)(O)OP(=O)(O)OC[C@H]3O[C@@H](n4cnc5c(N)ncnc54)[C@H](O)[C@@H]3O)[C@@H](O)[C@H]2O)C=CC1 [NADH] was run?
**A.** Its Kd is 34.9 µM.

B1: FDH1@TRAP ([Candida] boidinii) (protein)
chain: MKIVLVLYDAGKHAADEEKLYGCTENKLGIANWLKDQGHELITTSDKEGGNSVLDQHIPDADIIITTPFHPAYITKERIDKAKKLKLVVVAGVGSDHIDLDYINQTGKKISVLEVTGSNVVSVAEHVLMTMLVLVRNFVPAHEQIINHDWEVAAIAKDAYDIEGKTIATIGAGRIGYRVLERLVPFNPKELLYYDYQALPKDAEEKVGARRVENIEELVAQADIVTINAPLHAGTKGLINKELLSKFKKGAWLVNTARGAICVAEDVAAALESGQLRGYGGDVWFPQPAPKDHPWRDMRNKYGAGNAMTPHYSGTTLDAQTRYAEGTKNILESFFTGKFDYRPQDIILLNGEYITKAYGKHDKK
notes: FDH with C-terminal peptide-1 tag MEEVV, pET-28b(+), E. coli C41, Ni-NTA, His-tag removed by TEV; mass 45,137 (kDa [sic]); dimer; 5DNA as structure used for illustration
**Q.** Which results are given for B1?
**A.** Km (purified protein [2]): 2420 ± 1070 µM; Vmax (purified protein [2]): 0.95 µmol/min/mg; kcat (purified protein [2]): 0.7 ± 0.2 s⁻¹; kcat/Km (purified protein [2]): 290 M⁻¹ s⁻¹; Km (purified protein [3]): 270 ± 100 µM; Vmax (purified protein [3]): 1.23 µmol/min/mg; kcat (purified protein [3]): 0.9 ± 0.3 s⁻¹; kcat/Km (purified protein [3]): 3500 M⁻¹ s⁻¹

B2: AlaDH3: alanine dehydrogenase from Bacillus stearothermophilus with peptide-3 (MRRVW) fused to its C-terminus (enzyme)
chain: MKIGIPKEIKNNENRVAITPAGVMTLVKAGHDVYVETEAGAGSGFSDSEYEKAGAVIVPNAEDAWTAEMVLKVKEPLAEEFRYFRPGLILFTYLHLAAAEALTKALVEQKVVGIAYETVQLANGSLPLLTPMSEVAGRMSVQVGAQFLEKPHGGKGILLGGVPGVRRGKVTIIGGGTAGTNAAKIAVGLGSDVTILDINAERLRELDDLFGDHVTTLMSNSYHIAECVRESDLVVGAVLIPGAKAPKLVTEEMVRSMTPGSVLVDIAIDQGGIFETTDRVTTHDDPTYVKHGVVHYAVANMPGAVPRTSTFALTNVTIPYALQIANKGYRAACLDNPALLKGINTLDGHIVYEAVAAAHNMPYTDVHSLLHGMRRVW
**Q.** With B2 as the molecule, how does the “stoichiometry N” value [4] read?
**A.** Its value is 6.

B3: AlaDH3@TRAP (Geobacillus stearothermophilus) (protein)
chain: MKIGIPKEIKNNENRVAITPAGVMTLVKAGHEVYVETEGGAGSGFSDSEYEKAGAADRCRTWRDAWTAEMVLKVKEPLAREFRYFRPGLILFTYLHLAAAERVTKAVVEQKVVGIAYETVQLANGSLPLLTPMSEVAGRMSVQVGAQFLEKPHGGKGILLGGVPGVRRGKVTIIGGGTAGTNAAKIGVGLGADVTILDINAERLRELDDLFGDHVTTLMSNSYHIAECVRESDLVVGAVLIPGAKAKLVTEEMVRSMTPGSVLVDIAIDQGGIFETTDRVTTHDDPTYVKHGVVHYAVANMPGAVPRTSTFALTNVTIPYALQIANKGYRAGCLDNPALLKGINTLDGHIVYEAVAAAHNMPYTDVHSLLHG
notes: AlaDH with C-terminal peptide-3 tag MRRVW, pET-28b(+), E. coli C41, Ni-NTA, His-tag removed by TEV; mass 44,323 (kDa [sic]); hexamer
**Q.** Which Km (purified protein [5]) does the source give for B3 here?
**A.** Its Km is 360 ± 70 µM.

**Q.** And the Vmax (purified protein [5])?
**A.** Its Vmax is 94.3 µmol/min/mg.

**Q.** And the kcat (purified protein [5])?
**A.** Its kcat is 69.9 ± 4.7 s⁻¹.

**Q.** And the kcat/Km (purified protein [5])?
**A.** Its kcat/Km is 190000 M⁻¹ s⁻¹.

**Q.** What about the Km (purified protein [6]) of the same molecule?
**A.** Its Km is 390 ± 50 µM.

**Q.** And the Vmax (purified protein [6])?
**A.** Its Vmax is 41.3 µmol/min/mg.

**Q.** And the kcat (purified protein [6])?
**A.** The kcat was 30.6 ± 1.9 s⁻¹.

**Q.** What about the kcat/Km (purified protein [6]) of the same molecule?
**A.** Its kcat/Km is 79000 M⁻¹ s⁻¹.
